From the supplement of paper PMC10724198
± gives the standard deviation of the averaged measurements.

Tests used:
[1] = system: Saccharomyces cerevisiae; test: protein stability index of tFT-peptide fusion (C-terminal peptide) (PSI (0-1 scale)); higher = more stable (slower turnover); settings: genetic background: wild type; temperature: 30 C
[2] = system: Saccharomyces cerevisiae; test: as above
Method: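 MPS profiling in S. cerevisiae of the tFT-X12 degron library: putative degron peptides plus stable controls, 12 aa, fused to the C-terminus of a sfGFP-mCherry timer. Cells are FACS-sorted into 8 mCherry/sfGFP bins and deep-sequenced. PSI runs from 0 (unstable) to 1 (stable). Backgrounds are wild type, das1Δ and doa10Δ at 30 °C, and wild type, das1Δ, cdc34-1 and cdc53-1 at 37 °C; 2-3 technical replicates each.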

[3] = genetic background: cdc34-1, temperature: 37 C
[4] = genetic background: cdc53-1, temperature: 37 C
[5] = genetic background: das1 deletion, temperature: 30 C
[6] = genetic background: das1 deletion, temperature: 37 C
[7] = genetic background: doa10 deletion, temperature: 30 C
[8] = genetic background: wild type, temperature: 30 C
[9] = genetic background: wild type, temperature: 37 C
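Note: PSI is a weighted mean of sequencing reads over stability bins, variants kept only with over 10 reads, mCherry proximal and sfGFP distal, peptide attached via GGGS linker.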

Sequence	protein stability index [1]	protein stability index [2, 3]	protein stability index [2, 4]	protein stability index [2, 5]	protein stability index [2, 6]	protein stability index [2, 7]	protein stability index [2, 8]	protein stability index [2, 9]
GGYIINRWRTKN	0.27 ± 0.052	0.566 ± 0.035	0.709 ± 0.022	0.622 ± 0.016	0.724 ± 0.052	0.113 ± 0.026	0.142 ± 0.021	0.273 ± 0.011
GILPIYNIISRL	0.553 ± 0.28	0.9679 ± 0.0088	0.948 ± 0.019	0.842 ± 0.054	0.891 ± 0.013	0.568 ± 0.016	0.547 ± 0.1	0.84 ± 0.031
GITSFFSWSFLS	0.237 ± 0.048	0.6014 ± 0.0038	0.7537 ± 0.0057	0.682 ± 0.064	0.782 ± 0.055	0.169 ± 0.015	0.172 ± 0.0065	0.366 ± 0.0087
GKWFSWNAIWIR	0.145 ± 0.049	0.0949 ± 0.11	0.0354 ± 0.0075	0.101 ± 0.025	0.1 ± 0.02	0.6114 ± 0.0025	0.0762 ± 0.029	0.101 ± 0.046
GLCGVCLVRCVG	0.338 ± 0.019	0.3008 ± 0.00051	0.412 ± 0.024	0.275 ± 0.031	0.478 ± 0.0052	0.211 ± 0.0051	0.249 ± 0.036	0.393 ± 0.0046
GLGMVIIGLLIG	0.354 ± 0.022	0.176 ± 0.011	0.342 ± 0.09	0.224 ± 0.032	0.432 ± 0.042	0.191 ± 0.0035	0.227 ± 0.01	0.387 ± 0.0056
GLLGRCPVVVFG	0.378 ± 0.061	0.385 ± 0.041	0.397 ± 0.013	0.273 ± 0.04	0.49774 ± 0.00049	0.216 ± 0.013	0.285 ± 0.026	0.463 ± 0.0047
GLRFFVSSLLCR	0.508 ± 0.058	0.502 ± 0.039	0.54807 ± 0.0003	0.389 ± 0.036	0.5651 ± 0.0036	0.377 ± 0.0095	0.388 ± 0.02	0.555 ± 0.021
GLVCPWLIVRFV	0.2 ± 0.015	0.303 ± 0.051	0.3 ± 0.065	0.372 ± 0.036	0.5 ± 0.0067	0.161 ± 0.022	0.136 ± 0.0078	0.216 ± 0.03
GLVWSKCFFIVG	0.407 ± 0.033	0.637 ± 0.041	0.705 ± 0.016	0.547 ± 0.014	0.7105 ± 0.0018	0.2675 ± 0.0018	0.295 ± 0.022	0.528 ± 0.018
GLWLRVCIVAWV	0.14 ± 0.0097	0.0407 ± 0.01	0.122 ± 0.017	0.0686 ± 0.031	0.19 ± 0.0034	0.0424 ± 0.011	0.0551 ± 0.013	0.144 ± 0.0033
GLYLVFMGFVPC	0.47 ± 0.029	0.471 ± 0.019	0.52714 ± 4.2e-05	0.33 ± 0.053	0.575 ± 0.032	0.3169 ± 0.0022	0.325 ± 0.034	0.505 ± 0.0082
GNIHHTRFLALL	0.458 ± 0.0074	0.838 ± 0.04	0.859 ± 0.012	0.7472 ± 0.0026	0.835 ± 0.012	0.485 ± 0.017	0.498 ± 0.013	0.693 ± 0.024
GNSAGSVGGGRF	0.705 ± 0.038	0.695 ± 0.022	0.738 ± 0.02	0.627 ± 0.012	0.7387 ± 0.0012	0.638 ± 0.024	0.652 ± 0.014	0.7254 ± 0.0028
GPILVWVMADWG	0.447 ± 0.041	0.43 ± 0.036	0.506 ± 0.028	0.328 ± 0.036	0.5493 ± 0.00096	0.293 ± 0.0078	0.337 ± 0.018	0.518 ± 0.012
GPVRTEFWLYVW	0.553 ± 0.18	0.651 ± 0.014	0.704 ± 0.022	0.55 ± 0.041	0.655 ± 0.011	0.57 ± 0.031	0.583 ± 0.049	0.626 ± 0.0066
GQRIKWGPIYLT	0.249 ± 0.019	0.352 ± 0.079	0.336 ± 0.0081	0.366 ± 0.028	0.444 ± 0.013	0.397 ± 0.034	0.22 ± 0.027	0.365 ± 0.052
GREGETGSKAGR	0.552 ± 0.17	0.675 ± 0.008	0.708 ± 0.013	0.64 ± 0.024	0.7282 ± 0.003	0.64 ± 0.027	0.669 ± 0.021	0.717 ± 0.015
GRGGLRVVVWLV	0.189 ± 0.011	0.518 ± 0.069	0.642 ± 0.016	0.496 ± 0.024	0.6652 ± 0.0041	0.11 ± 0.017	0.123 ± 0.022	0.143 ± 0.0029
GRGLGHWWTVRT	0.751 ± 0.033	0.672 ± 0.03	0.756 ± 0.024	0.698 ± 0.017	0.741 ± 0.015	0.689 ± 0.013	0.704 ± 0.0092	0.716 ± 0.012
